Laboratory results published in paper PMC11860814.

Key:
[1] = biological target: Cry1Ia38 protoxin (Bacillus thuringiensis); test: SEC; Superdex-200 10/300 GL on an ÄKTA Explorer 100; sizes interpolated from protein standards (44-669 kDa); purified proteins loaded
[2] = biological target: Cry1Ia38 protoxin (Bacillus thuringiensis); test: SDS-PAGE under non-denaturing conditions; SDS-12%PAGE of SEC peak fractions; loading buffer without SDS or β-mercaptoethanol, heated at 50 °C for 3 min to preserve oligomers
[3] = biological target: Cry1Ia gut fluid intermediate (GF-Int) (Bacillus thuringiensis); test: SEC
[4] = biological target: fully trypsinized Cry1Ia protein (toxin) (Bacillus thuringiensis); test: SEC; Superdex-200 10/300 GL on an ÄKTA Explorer 100; sizes interpolated from protein standards (44-669 kDa); purified proteins loaded
[5] = biological target: Cry1Ia trypsin intermediate (T-Int) (Bacillus thuringiensis); test: SDS-PAGE under non-denaturing conditions; SDS-12%PAGE of SEC peak fractions; loading buffer without SDS or β-mercaptoethanol, heated at 50 °C for 3 min to preserve oligomers
[6] = biological target: Cry1Ia trypsin intermediate (T-Int) (Bacillus thuringiensis); test: SEC

Cry1Ia38 protoxin (natural protein)
stoichiometry N [1]: 2
stoichiometry N [2]: 2

Cry1Ia gut fluid intermediate (GF-Int) (domain or fragment)
stoichiometry N [3]: 2

fully trypsinized Cry1Ia protein (toxin) (domain or fragment)
stoichiometry N [4]: 2

Cry1Ia trypsin intermediate (T-Int) (domain or fragment)
stoichiometry N [5]: 2
stoichiometry N [6]: 2
